Test results: PMC9482650, “Quantitative fragmentomics allow affinity mapping of interactomes” (Nature Communications, 2022)
Each block holds one binder with its values, some of them ahead of it.

What was measured:
Experiment in all cases: holdup assay
Set-up in all cases: key: below the threshold = too weak to quantify, mostly under pKd 3.1 to 4
DLG3_1, Q92796 = target: T1, DLG3_1, Q92796
T1 sequence (Q92796 125-227, limits assumed, looked up): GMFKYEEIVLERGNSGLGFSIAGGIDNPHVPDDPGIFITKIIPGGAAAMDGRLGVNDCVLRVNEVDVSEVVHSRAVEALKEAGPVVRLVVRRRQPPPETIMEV

Inadl_3, Q8NI35 = target: Inadl_3, Q8NI35
Chain of Inadl_3, Q8NI35 (Q8NI35 359-469): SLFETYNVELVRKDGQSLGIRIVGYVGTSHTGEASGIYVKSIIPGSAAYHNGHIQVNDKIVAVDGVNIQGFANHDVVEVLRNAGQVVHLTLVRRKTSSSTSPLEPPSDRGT

LNX1_1, Q8TBB1 = target: LNX1_1, Q8TBB1
Chain of LNX1_1, Q8TBB1 (Q8TBB1 261-371): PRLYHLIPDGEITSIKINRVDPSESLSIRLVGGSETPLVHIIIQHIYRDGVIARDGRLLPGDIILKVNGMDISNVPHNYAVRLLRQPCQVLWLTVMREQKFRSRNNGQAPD

GIPC2, Q8TF65 = target: GIPC2, Q8TF65
Chain of GIPC2, Q8TF65 (Q8TF65 112-203): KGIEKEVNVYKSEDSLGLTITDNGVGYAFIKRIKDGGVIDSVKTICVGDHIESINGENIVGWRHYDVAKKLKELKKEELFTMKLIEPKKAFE

MAGI2_4, Q86UL8 = target: MAGI2_4, Q86UL8
Chain of MAGI2_4, Q86UL8 (Q86UL8 772-865): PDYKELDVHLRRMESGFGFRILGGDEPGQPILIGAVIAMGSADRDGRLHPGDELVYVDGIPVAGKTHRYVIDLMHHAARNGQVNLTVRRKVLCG

LNX1_2, Q8TBB1 = target: LNX1_2, Q8TBB1
Chain of LNX1_2, Q8TBB1 (Q8TBB1 371-470): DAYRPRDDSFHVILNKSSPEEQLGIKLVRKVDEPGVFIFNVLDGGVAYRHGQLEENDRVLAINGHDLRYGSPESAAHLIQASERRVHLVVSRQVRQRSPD

PTPN13_1, Q12923 = target: T2, PTPN13_1, Q12923
T2 sequence (Q12923 1088-1188, limits assumed, looked up): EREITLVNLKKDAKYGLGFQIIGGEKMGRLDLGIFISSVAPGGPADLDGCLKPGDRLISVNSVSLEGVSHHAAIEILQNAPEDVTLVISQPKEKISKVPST

MAGI1_1, Q96QZ7 = target: MAGI1_1, Q96QZ7
Chain of MAGI1_1, Q96QZ7 (Q96QZ7 1-106): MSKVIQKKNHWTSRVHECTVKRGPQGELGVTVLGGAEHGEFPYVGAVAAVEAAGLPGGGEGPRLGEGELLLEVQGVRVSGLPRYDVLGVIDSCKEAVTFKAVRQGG

CASK, O14936 = target: CASK, O14936
Chain of CASK, O14936 (O14936 487-570): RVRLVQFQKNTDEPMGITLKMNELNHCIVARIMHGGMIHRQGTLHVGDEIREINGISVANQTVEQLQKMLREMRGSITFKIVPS

TJP1_3, Q07157 = target: TJP1_3, Q07157
Chain of TJP1_3, Q07157 (Q07157 416-512): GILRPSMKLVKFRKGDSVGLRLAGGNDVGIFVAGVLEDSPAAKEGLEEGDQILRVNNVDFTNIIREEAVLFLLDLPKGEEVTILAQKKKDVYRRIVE

TX1BP3, O14907 = target: T3, TX1BP3, O14907
T3 sequence (O14907 10-122, limits assumed, looked up): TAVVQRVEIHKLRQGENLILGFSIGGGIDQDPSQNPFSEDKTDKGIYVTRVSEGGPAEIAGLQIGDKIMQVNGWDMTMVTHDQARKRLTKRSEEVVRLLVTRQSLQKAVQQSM

MAGI2_6, Q86UL8 = target: MAGI2_6, Q86UL8
Chain of MAGI2_6, Q86UL8 (Q86UL8 1141-1229): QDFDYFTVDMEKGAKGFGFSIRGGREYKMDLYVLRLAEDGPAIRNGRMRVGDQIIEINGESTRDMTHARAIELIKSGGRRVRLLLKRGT

NHERF3_3, Q5T2W1 = target: T4, NHERF3_3, Q5T2W1
T4 sequence (Q5T2W1 238-333, limits assumed, looked up): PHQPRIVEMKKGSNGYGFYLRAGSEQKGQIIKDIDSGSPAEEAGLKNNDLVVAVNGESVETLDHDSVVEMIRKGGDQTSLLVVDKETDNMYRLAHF

Inadl_8, Q8NI35 = target: Inadl_8, Q8NI35
Chain of Inadl_8, Q8NI35 (Q8NI35 1425-1530): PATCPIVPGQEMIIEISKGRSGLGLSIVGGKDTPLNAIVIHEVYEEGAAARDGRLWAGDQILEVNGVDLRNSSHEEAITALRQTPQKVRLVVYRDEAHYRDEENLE

LIN7B, Q9HAP6 = target: T5, LIN7B, Q9HAP6
T5 sequence (Q9HAP6 88-185, limits assumed, looked up): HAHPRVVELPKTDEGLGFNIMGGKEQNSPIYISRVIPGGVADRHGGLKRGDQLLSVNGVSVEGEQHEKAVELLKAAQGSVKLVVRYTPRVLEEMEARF

MPP2, Q14168 = target: T6, MPP2, Q14168
T6 sequence (Q14168 180-250, limits assumed, looked up): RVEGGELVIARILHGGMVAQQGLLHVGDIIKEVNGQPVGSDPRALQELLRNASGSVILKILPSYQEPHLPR

FRMPD2_3, Q68DX3 = target: FRMPD2_3, Q68DX3
Chain of FRMPD2_3, Q68DX3 (Q68DX3 1073-1166): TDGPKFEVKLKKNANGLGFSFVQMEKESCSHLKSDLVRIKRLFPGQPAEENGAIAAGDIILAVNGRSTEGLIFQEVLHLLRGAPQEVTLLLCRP

DLG3_2, Q92796 = target: T7, DLG3_2, Q92796
T7 sequence (Q92796 221-321, limits assumed, looked up): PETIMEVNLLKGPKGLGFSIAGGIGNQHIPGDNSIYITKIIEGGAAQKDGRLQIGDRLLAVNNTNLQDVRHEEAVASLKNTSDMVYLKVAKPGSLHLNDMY

DLG3_3, Q92796 = target: T8, DLG3_3, Q92796
T8 sequence (Q92796 374-475, limits assumed, looked up): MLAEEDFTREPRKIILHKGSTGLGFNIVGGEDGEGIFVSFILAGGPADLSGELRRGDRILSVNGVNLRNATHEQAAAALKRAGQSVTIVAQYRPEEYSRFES

TJP3_3, O95049 = target: T9, TJP3_3, O95049
T9 sequence (O95049 375-456, limits assumed, looked up): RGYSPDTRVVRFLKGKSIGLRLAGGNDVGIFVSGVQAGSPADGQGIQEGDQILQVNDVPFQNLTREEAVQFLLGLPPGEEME

APBA1_1, Q02410 = target: T10, APBA1_1, Q02410
T10 sequence (Q02410 651-752, limits assumed, looked up): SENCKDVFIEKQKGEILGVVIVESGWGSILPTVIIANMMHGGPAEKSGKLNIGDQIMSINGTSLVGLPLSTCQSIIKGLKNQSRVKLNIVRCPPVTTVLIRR

SNTG1, Q9NSN8 = target: T11, SNTG1, Q9NSN8
T11 sequence (Q9NSN8 52-150, limits assumed, looked up): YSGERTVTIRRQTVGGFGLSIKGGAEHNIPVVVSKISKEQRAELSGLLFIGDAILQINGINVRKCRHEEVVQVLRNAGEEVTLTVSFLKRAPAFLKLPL

DLG4_2, P78352 = target: DLG4_2, P78352
Chain of DLG4_2, P78352 (P78352 155-259): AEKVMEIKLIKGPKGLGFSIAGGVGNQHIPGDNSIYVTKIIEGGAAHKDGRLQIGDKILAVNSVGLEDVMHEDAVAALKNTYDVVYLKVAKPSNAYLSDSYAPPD

GRIP1_2, Q9Y3R0 = target: T12, GRIP1_2, Q9Y3R0
T12 sequence (Q9Y3R0 145-248, limits assumed, looked up): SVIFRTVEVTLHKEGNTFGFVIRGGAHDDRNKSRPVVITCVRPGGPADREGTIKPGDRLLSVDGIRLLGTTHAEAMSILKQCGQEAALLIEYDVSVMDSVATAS

NHERF4_4, Q86UT5 = target: NHERF4_4, Q86UT5
Chain of NHERF4_4, Q86UT5 (Q86UT5 464-550): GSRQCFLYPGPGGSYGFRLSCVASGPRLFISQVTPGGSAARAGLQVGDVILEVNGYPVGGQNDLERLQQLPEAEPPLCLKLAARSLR

Inadl_9, Q8NI35 = target: Inadl_9, Q8NI35
Chain of Inadl_9, Q8NI35 (Q8NI35 1530-1615): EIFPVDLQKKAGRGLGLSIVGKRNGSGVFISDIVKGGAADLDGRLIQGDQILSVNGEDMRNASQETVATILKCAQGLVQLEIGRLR

[1] = plain residues with an end cap or a label only (N-terminal biotin on a linker: ttds)
[2] = plain residues with an end cap or a label only (N-terminal biotin on a linker: ado-ado)

pKd (DLG3_1, Q92796; [1]): 3.82
pKd (Inadl_3, Q8NI35; [1]): below the threshold
pKd (LNX1_1, Q8TBB1; [1]): 3.57
pKd (GIPC2, Q8TF65; [1]): below the threshold
pKd (MAGI2_4, Q86UL8; [1]): below the threshold
pKd (LNX1_2, Q8TBB1; [1]): below the threshold
pKd (PTPN13_1, Q12923; [1]): below the threshold
pKd (MAGI1_1, Q96QZ7; [1]): below the threshold
pKd (CASK, O14936; [1]): below the threshold
pKd (TJP1_3, Q07157; [1]): below the threshold
pKd (TX1BP3, O14907; [1]): 5.9
pKd (MAGI2_6, Q86UL8; [1]): 3.76
pKd (NHERF3_3, Q5T2W1; [1]): below the threshold
pKd (Inadl_8, Q8NI35; [1]): 3.68
pKd (LIN7B, Q9HAP6; [1]): below the threshold
pKd (MPP2, Q14168; [1]): below the threshold
pKd (FRMPD2_3, Q68DX3; [1]): below the threshold
pKd (DLG3_2, Q92796; [1]): 4.54
pKd (DLG3_3, Q92796; [1]): 3.67
pKd (TJP3_3, O95049; [1]): below the threshold
pKd (APBA1_1, Q02410; [1]): below the threshold
pKd (SNTG1, Q9NSN8; [1]): 4.79
pKd (DLG4_2, P78352; [1]): 4.6
pKd (GRIP1_2, Q9Y3R0; [1]): below the threshold
pKd (NHERF4_4, Q86UT5; [1]): below the threshold
pKd (Inadl_9, Q8NI35; [1]): below the threshold
Binder: PKRPFVESNV [TANC2, Q9HCD6]

pKd (DLG3_1, Q92796; [1]): below the threshold
pKd (Inadl_3, Q8NI35; [1]): below the threshold
pKd (LNX1_1, Q8TBB1; [1]): below the threshold
pKd (GIPC2, Q8TF65; [1]): below the threshold
pKd (MAGI2_4, Q86UL8; [1]): below the threshold
pKd (LNX1_2, Q8TBB1; [1]): below the threshold
pKd (PTPN13_1, Q12923; [1]): below the threshold
pKd (MAGI1_1, Q96QZ7; [1]): below the threshold
pKd (CASK, O14936; [1]): below the threshold
pKd (TJP1_3, Q07157; [1]): below the threshold
pKd (TX1BP3, O14907; [1]): 3.96
pKd (MAGI2_6, Q86UL8; [1]): 4.05
pKd (NHERF3_3, Q5T2W1; [1]): below the threshold
pKd (Inadl_8, Q8NI35; [1]): below the threshold
pKd (LIN7B, Q9HAP6; [1]): below the threshold
pKd (MPP2, Q14168; [1]): below the threshold
pKd (FRMPD2_3, Q68DX3; [1]): below the threshold
pKd (DLG3_2, Q92796; [1]): 3.93
pKd (DLG3_3, Q92796; [1]): 3.78
pKd (TJP3_3, O95049; [1]): below the threshold
pKd (APBA1_1, Q02410; [1]): below the threshold
pKd (SNTG1, Q9NSN8; [1]): 5.31
pKd (DLG4_2, P78352; [1]): 4.18
pKd (GRIP1_2, Q9Y3R0; [1]): below the threshold
pKd (NHERF4_4, Q86UT5; [1]): below the threshold
pKd (Inadl_9, Q8NI35; [1]): below the threshold
Binder: LDSQIQETSI [MAP4, P27816]

pKd (DLG3_1, Q92796; [1]): 3.9
pKd (Inadl_3, Q8NI35; [1]): below the threshold
pKd (LNX1_1, Q8TBB1; [1]): below the threshold
pKd (GIPC2, Q8TF65; [1]): below the threshold
pKd (MAGI2_4, Q86UL8; [1]): below the threshold
pKd (LNX1_2, Q8TBB1; [1]): below the threshold
pKd (PTPN13_1, Q12923; [1]): below the threshold
pKd (MAGI1_1, Q96QZ7; [1]): below the threshold
pKd (CASK, O14936; [1]): below the threshold
pKd (TJP1_3, Q07157; [1]): below the threshold
pKd (TX1BP3, O14907; [1]): 5.47
pKd (MAGI2_6, Q86UL8; [1]): 4.42
pKd (NHERF3_3, Q5T2W1; [1]): below the threshold
pKd (Inadl_8, Q8NI35; [1]): below the threshold
pKd (LIN7B, Q9HAP6; [1]): 4.68
pKd (MPP2, Q14168; [1]): below the threshold
pKd (FRMPD2_3, Q68DX3; [1]): below the threshold
pKd (DLG3_2, Q92796; [1]): 4.88
pKd (DLG3_3, Q92796; [1]): 4.25
pKd (TJP3_3, O95049; [1]): below the threshold
pKd (APBA1_1, Q02410; [1]): below the threshold
pKd (SNTG1, Q9NSN8; [1]): 5.39
pKd (DLG4_2, P78352; [1]): 4.78
pKd (GRIP1_2, Q9Y3R0; [1]): below the threshold
pKd (NHERF4_4, Q86UT5; [1]): below the threshold
pKd (Inadl_9, Q8NI35; [1]): below the threshold
Binder: NYWPGKETQL [SLCO1C1, Q9NYB5]

pKd (DLG3_1, Q92796; [2]): below the threshold
pKd (Inadl_3, Q8NI35; [2]): below the threshold
pKd (LNX1_1, Q8TBB1; [2]): 3.6
pKd (GIPC2, Q8TF65; [2]): below the threshold
pKd (MAGI2_4, Q86UL8; [2]): 3.57
pKd (LNX1_2, Q8TBB1; [2]): 3.47
pKd (PTPN13_1, Q12923; [2]): below the threshold
pKd (MAGI1_1, Q96QZ7; [2]): 3.62
pKd (CASK, O14936; [2]): below the threshold
pKd (TJP1_3, Q07157; [2]): 3.48
pKd (TX1BP3, O14907; [2]): below the threshold
pKd (MAGI2_6, Q86UL8; [2]): 3.54
pKd (NHERF3_3, Q5T2W1; [2]): below the threshold
pKd (Inadl_8, Q8NI35; [2]): below the threshold
pKd (LIN7B, Q9HAP6; [2]): below the threshold
pKd (MPP2, Q14168; [2]): below the threshold
pKd (FRMPD2_3, Q68DX3; [2]): below the threshold
pKd (DLG3_2, Q92796; [2]): below the threshold
pKd (DLG3_3, Q92796; [2]): below the threshold
pKd (TJP3_3, O95049; [2]): below the threshold
pKd (APBA1_1, Q02410; [2]): below the threshold
pKd (SNTG1, Q9NSN8; [2]): 3.64
pKd (DLG4_2, P78352; [2]): 3.62
pKd (GRIP1_2, Q9Y3R0; [2]): below the threshold
pKd (NHERF4_4, Q86UT5; [2]): 4.01
pKd (Inadl_9, Q8NI35; [2]): below the threshold
Binder: EDLTKNHDEL [RCN1, Q15293]

pKd (DLG3_1, Q92796; [2]): below the threshold
pKd (Inadl_3, Q8NI35; [2]): 3.65
pKd (LNX1_1, Q8TBB1; [2]): 3.88
pKd (GIPC2, Q8TF65; [2]): 3.87
pKd (MAGI2_4, Q86UL8; [2]): below the threshold
pKd (LNX1_2, Q8TBB1; [2]): below the threshold
pKd (PTPN13_1, Q12923; [2]): below the threshold
pKd (MAGI1_1, Q96QZ7; [2]): below the threshold
pKd (CASK, O14936; [2]): below the threshold
pKd (TJP1_3, Q07157; [2]): below the threshold
pKd (TX1BP3, O14907; [2]): 3.73
pKd (MAGI2_6, Q86UL8; [2]): 3.67
pKd (NHERF3_3, Q5T2W1; [2]): below the threshold
pKd (Inadl_8, Q8NI35; [2]): below the threshold
pKd (LIN7B, Q9HAP6; [2]): below the threshold
pKd (MPP2, Q14168; [2]): below the threshold
pKd (FRMPD2_3, Q68DX3; [2]): below the threshold
pKd (DLG3_2, Q92796; [2]): below the threshold
pKd (DLG3_3, Q92796; [2]): below the threshold
pKd (TJP3_3, O95049; [2]): below the threshold
pKd (APBA1_1, Q02410; [2]): below the threshold
pKd (SNTG1, Q9NSN8; [2]): 3.62
pKd (DLG4_2, P78352; [2]): 3.5
pKd (GRIP1_2, Q9Y3R0; [2]): below the threshold
pKd (NHERF4_4, Q86UT5; [2]): below the threshold
pKd (Inadl_9, Q8NI35; [2]): below the threshold
Binder: GFGEERESIL [KIDINS220, Q9ULH0]
